Laboratory results reported in PMC10766600.

Key:
[1] = target: bacteriophage T5 capsid-like particles (T5 CLPs) (bacteriophage T5)
[2] = target: bacteriophage T5 capsid-like particles (T5 CLPs) (bacteriophage T5); assay: cryo-EM structure; pNO-decorated CLPs, 200 kV Glacios, icosahedral (I4) reconstruction from 10,449 particles, 5.8 Å

Chain of pNO: N-terminal capsid-binding domain pN of pb10 fused at its C-terminal end with ovalbumin (Q6QGD6 whole entry, the tested form may be a part): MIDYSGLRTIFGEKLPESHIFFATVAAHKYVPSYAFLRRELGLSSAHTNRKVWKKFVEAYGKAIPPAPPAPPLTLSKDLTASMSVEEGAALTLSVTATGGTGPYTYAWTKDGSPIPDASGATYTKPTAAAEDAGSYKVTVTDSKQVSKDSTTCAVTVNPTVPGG
Chain of pO: full-length pb10 fused at its C-terminal end with ovalbumin (Q6QGD6 whole entry, the tested form may be a part): as above

| anti-Ova IgG (ELISA) in sera of C57BL/6 mice after a single subcutaneous injection of CLP-bound pNO against pNO alone, days 14 to 192 post-injection [1] | stoichiometry N (copies per capsid) [2] | anti-Ova IgG (ELISA) in sera of C57BL/6 mice after a single subcutaneous injection of CLP-bound pO against pO alone, days 14 to 192 post-injection [1] | Substance |
| --- | --- | --- | --- |
| 1000 fold | 120 | – | pNO: N-terminal capsid-binding domain pN of pb10 fused at its C-terminal end with ovalbumin (from UniProt Q6QGD6 1-73) |
| – | – | 1000 fold | pO: full-length pb10 fused at its C-terminal end with ovalbumin (from UniProt Q6QGD6 1-164) |
